Test results as given in the supplement of paper PMC11246515.
± gives the standard deviation of the averaged measurements.

Assay: total protein half-life in vivo (active degradation + dilution); higher = more stable protein
[1] = E. coli NCM3722 delta-clpP delta-lon delta-hslV, growth: N-lim chemostat, doubling time 6 h
[2] = E. coli NCM3722 delta-hslV, growth: N-lim chemostat, doubling time 6 h
[3] = E. coli NCM3722 delta-lon, growth: N-lim chemostat, doubling time 6 h
[4] = E. coli NCM3722 delta-smpB, growth: N-lim chemostat, doubling time 6 h
[5] = wild type E. coli NCM3722, growth: C-lim chemostat, doubling time 3 h
[6] = wild type E. coli NCM3722, growth: C-lim chemostat, doubling time 6 h
[7] = wild type E. coli NCM3722, growth: C-lim chemostat, doubling time 12 h
[8] = wild type E. coli NCM3722, growth: N-lim chemostat, doubling time 6 h
[9] = wild type E. coli NCM3722, growth: N-lim chemostat, doubling time 12 h
[10] = wild type E. coli NCM3722, growth: P-lim chemostat, doubling time 6 h
[11] = wild type E. coli NCM3722, growth: P-lim chemostat, doubling time 12 h
[12] = E. coli NCM3722 delta-clpP, growth: N-lim chemostat, doubling time 6 h

| Sequence | total protein half-life in vivo [1] [h] | total protein half-life in vivo [2] [h] | total protein half-life in vivo [3] [h] | total protein half-life in vivo [4] [h] | total protein half-life in vivo [5] [h] | total protein half-life in vivo [6] [h] | total protein half-life in vivo [7] [h] | total protein half-life in vivo [8] [h] | total protein half-life in vivo [9] [h] | total protein half-life in vivo [10] [h] | total protein half-life in vivo [11] [h] | total protein half-life in vivo [12] [h] |
| --- | --- | --- | --- | --- | --- | --- | --- | --- | --- | --- | --- | --- |
| MKALSPIAVLISALLLQGCVAAAVVGTAAVGTKAATDPRSVGTQVDDGTLEVRVNSALSKDEQIKKEARINVTAYQGKVLLVGQSPNAELSARAKQIAMGVDGANEVYNEIRQGQPIGLGEASNDTWITTKVRSQLLTSDLVKSSNVKVTTENGEVFLMGLVTEREAKAAADIASRVSGVKRVTTAFTFIK | 5.42 ± 0.59 | 6.43 ± 0.3 | 6.34 ± 0.34 | 5.71 ± 0.1 | 3.05 ± 0.21 | 5.72 ± 0.47 | 10.5 ± 1.7 | 5.86 ± 0.3 | 11.9 ± 0.14 | 5.78 ± 0.22 | 12.3 ± 0.21 |  |
| MKATSEELAIFVSVVESGSFSRAAEQLGQANSAVSRAVKKLEMKLGVSLLNRTTRQLSLTEEGERYFRRVQSILQEMAAAESEIMETRNTPRGLLRIDAATPVVLHFLMPLIKPFRERYPEVTLSLVSSETIINLIERKVDVAIRAGTLTDSSLRARPLFNSYRKIIASPDYISRYGKPETIDDLKQHICLGFTEPASLNTWPIARSDGQLHEVKYGLSSNSGETLKQLCLSGNGIACLSDYMIDKEIARGELVELMADKVLPVEMPFSAVYYSDRAVSTRIRAFIDFLSEHVKTAPGGAVREA | 6.4 ± 0.2 | 5.5 ± 1.2 | 5.97 ± 0.94 | 5.67 ± 0.07 | 3.33 ± 0.26 | 5.1 ± 0.3 | 12.7 ± 0.46 | 6.02 ± 0.12 | 11.3 ± 0.32 | 5.75 ± 0.71 | 12 ± 1.9 |  |
| MKCKRLNEVIELLQPAWQKEPDLNLLQFLQKLAKESGFDGELADLTDDILIYHLKMRDSAKDAVIPGLQKDYEEDFKTALLRARGVIKE [P0ADP9] | 6.97 ± 1.2 | 3.81 ± 0.33 | 3.98 ± 0.12 | 3.12 ± 0.3 |  | 4.76 ± 0.47 | 7.3 ± 1.9 | 2.74 ± 0.051 | 8.19 ± 5.8 | 5.01 ± 1.1 | 11.2 ± 0.38 | 4.97 ± 0.93 |
| MKDVVDKCSTKGCAIDIGTVIDNDNCTSKFSRFFATREEAESFMTKLKELAAATSSADEGASVAYKIKDLEGQVELDAAFTFSCQAEMIIFELSLRSLA | 5.09 ± 0.21 | 2.6 ± 0.38 | 2.85 ± 0.098 | 2.09 ± 0.23 | 2.11 ± 0.4 | 4.95 ± 1.9 | 5.78 ± 0.33 | 2.26 ± 0.19 | 3.38 ± 0.55 | 4 ± 0.22 | 7.6436 ± 0.0046 | 4.2 |
| MKEKPAVEVRLDKWLWAARFYKTRALAREMIEGGKVHYNGQRSKPSKIVELNATLTLRQGNDERTVIVKAITEQRRPASEAALLYEETAESVEKREKMALARKLNALTMPHPDRRPDKKERRDLLRFKHGDSE [P0ACG8] | 6.23 ± 0.21 |  | 5.39 | 3.67 | 2.91 | 5.7 ± 1.5 | 6.7 | 4.16 | 6.59 |  | 7.24 |  |
| MKESNSRREFLSQSGKMVTAAALFGTSVPLAHAAVAGTLNCEANNTMKITDPHYYLDNVLLETGFDYENGVAVQTRTARQTVEIQDGKIVALRENKLHPDATLPHYDAGGKLMLPTTRDMHIHLDKTFYGGPWRSLNRPAGTTIQDMIKLEQKMLPELQPYTQERAEKLIDLLQSKGTTIARSHCNIEPVSGLKNLQNLQAVLARRQAGFECEIVAFPQHGLLLSKSEPLMREAMQAGAHYVGGLDPTSVDGAMEKSLDTMFQIALDYDKGVDIHLHETTPAGVAAINYMVETVEKTPQLKGKLTISHAFALATLNEQQVDELANRMVVQQISIASTVPIGTLHMPLKQLHDKGVKVMTGTDSVIDHWSPYGLGDMLEKANLYAQLYIRPNEQNLSRSLFLATGDVLPLNEKGERVWPKAQDDASFVLVDASCSAEAVARISPRTATFHKGQLVWGSVAG | 4.64 ± 0.15 | 4.51 ± 0.31 | 4.82 ± 0.11 | 3.937 ± 0.008 | 3.21 ± 0.41 |  | 9.95 ± 0.62 | 4.32 ± 0.17 | 6.843 ± 0.056 | 5.67 ± 0.43 | 11.53 ± 0.036 | 4.34 ± 0.53 |
| MKFELDTTDGRARRGRLVFDRGVVETPCFMPVGTYGTVKGMTPEEVEATGAQIILGNTFHLWLRPGQEIMKLHGDLHDFMQWKGPILTDSGGFQVFSLGDIRKITEQGVHFRNPINGDPIFLDPEKSMEIQYDLGSDIVMIFDECTPYPADWDYAKRSMEMSLRWAKRSRERFDSLGNKNALFGIIQGSVYEDLRDISVKGLVDIGFDGYAVGGLAVGEPKADMHRILEHVCPQIPADKPRYLMGVGKPEDLVEGVRRGIDMFDCVMPTRNARNGHLFVTDGVVKIRNAKYKSDTGPLDPECDCYTCRNYSRAYLHHLDRCNEILGARLNTIHNLRYYQRLMAGLRKAIEEGKLESFVTDFYQRQGREVPPLNVD [P0A847] | 5.511 ± 0.011 | 4.74 ± 0.42 |  | 4.12 ± 0.42 | 3.176 ± 0.02 | 6.4 ± 0.068 | 10.9 ± 0.33 | 5.08 ± 0.26 | 9.05 ± 0.3 | 6.03 ± 0.7 | 13.7 ± 1.2 | 5.15 ± 0.27 |
